Experiments:
[1] = molecular target: T1, cynomolgus monkey DR4 with death domain deletion on ExpiCHO-S cells (cynomolgus monkey (Macaca fascicularis)); assay: flow cytometry on ExpiCHO-S cells transiently expressing cynomolgus monkey DR4 (death domain deleted), gMFI PE
T1 construct: also called cynomolgus DR4
T1 chain: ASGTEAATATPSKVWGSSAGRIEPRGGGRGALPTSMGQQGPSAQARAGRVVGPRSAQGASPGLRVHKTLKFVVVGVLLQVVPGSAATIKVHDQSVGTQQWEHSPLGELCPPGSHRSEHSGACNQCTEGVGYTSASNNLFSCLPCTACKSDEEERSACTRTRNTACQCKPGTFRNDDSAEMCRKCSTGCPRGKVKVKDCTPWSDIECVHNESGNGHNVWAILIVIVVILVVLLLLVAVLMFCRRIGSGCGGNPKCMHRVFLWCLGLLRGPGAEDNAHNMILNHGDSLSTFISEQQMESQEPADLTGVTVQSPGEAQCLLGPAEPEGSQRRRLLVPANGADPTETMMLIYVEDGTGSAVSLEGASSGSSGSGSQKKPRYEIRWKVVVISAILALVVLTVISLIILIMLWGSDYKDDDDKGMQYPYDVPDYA

[2] = molecular target: T2, rat FAPα on Expi293F cells (rat (Rattus norvegicus), UniProt P97321 1-761 (mouse entry)); assay: flow cytometry on Expi293F cells transiently expressing rat FAPα, gMFI PE
T2 chain: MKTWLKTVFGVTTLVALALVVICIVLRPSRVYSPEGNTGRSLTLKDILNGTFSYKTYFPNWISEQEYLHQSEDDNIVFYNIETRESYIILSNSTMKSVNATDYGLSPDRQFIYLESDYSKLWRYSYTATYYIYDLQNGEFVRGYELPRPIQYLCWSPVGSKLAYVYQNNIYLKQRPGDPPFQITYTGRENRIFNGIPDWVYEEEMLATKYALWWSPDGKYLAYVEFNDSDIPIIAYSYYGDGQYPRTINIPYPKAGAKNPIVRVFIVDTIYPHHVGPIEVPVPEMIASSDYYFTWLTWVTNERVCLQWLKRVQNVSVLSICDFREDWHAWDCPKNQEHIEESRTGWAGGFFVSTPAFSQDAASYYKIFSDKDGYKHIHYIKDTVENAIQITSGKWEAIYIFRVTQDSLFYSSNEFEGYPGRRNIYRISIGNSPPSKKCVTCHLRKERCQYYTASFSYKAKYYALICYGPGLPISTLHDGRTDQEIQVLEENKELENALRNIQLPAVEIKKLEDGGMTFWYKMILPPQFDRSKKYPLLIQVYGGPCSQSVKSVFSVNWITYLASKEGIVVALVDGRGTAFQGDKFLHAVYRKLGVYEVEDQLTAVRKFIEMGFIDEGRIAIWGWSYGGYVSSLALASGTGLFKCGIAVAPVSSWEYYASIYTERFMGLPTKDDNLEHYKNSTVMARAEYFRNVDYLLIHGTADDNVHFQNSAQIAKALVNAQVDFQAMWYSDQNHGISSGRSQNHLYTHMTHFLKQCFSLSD
Protocol: Binding of BisG1-FAPα-FERL/DR4-FERR, BisG1-FAPα-FEAL/b12-FEAR and IgG1-FAPα-FERL to FAPα of species commonly used for nonclinical toxicology studies was assessed by flow cytometry using Expi293F cells transiently expressing FAPα from different animal species. IgG1-b12 was included as negative control.
Expi293F cells expressing recombinant FAPα from various species (human, cynomolgus monkey, dog, pig, rat or mouse) were seeded (20,000 cells/well) in 96-Well round bottom plates (Greiner Bio-one, Cat #650101). Antibody dilutions were prepared using FACS buffer, consisting of PBS (Capricorn Scientific, Cat #PBS-10XA, diluted to 1×PBS in distilled water)+1% BSA (Roche, Cat #10735086001)+0.02% Sodium Azide (Bio-World, Cat #41920044-3). Plates were centrifuged, supernatant was removed, and cells were resuspended in 100 μL of antibody dilutions (concentration range 30-0.00017 μg/mL with three-fold serial dilutions using FACS buffer) of BisG1-FAPα-FERL/DR4-FERR, BisG1-FAPα-FEAL/b12-FEAR, IgG1-FAPα-FERL and IgG1-b12 and incubated for 30 min at 4° C. […] Antibody binding to viable cells (gMFI of PE on TO-PRO-3 negative cells) was analyzed by flow cytometry on a FACS Celesta and FACS_Diva software (first two experiments) or iQue® 3 and FlowJo software (last experiment). gMFI was determined and visualized using GraphPad Prism. Binding curves were analyzed using nonlinear regression analysis. […]

[3] = molecular target: T3, human DR4HsECD-FcHisCtag (human); assay: BLI, antigen captured on anti-Penta-HIS sensors
T3 construct: also called recombinant human DR4
Protocol: The binding affinity of BisG1-FAPα-FERL/DR4-FERR, BisG1-b12-FERL/DR4-FERR and control BisG1-FAPα-FERL/b12-FERR to recombinant human and cynomolgus monkey DR4 protein was determined using label-free biolayer interferometry on an Octet HTX instrument (Sartorius).
The protocol detailed in Example 5 was used with the following differences: anti-Penta-HIS biosensors (Sartorius, Cat #18-5120) were used; the sensors were preconditioned by exposure to 10 mM glycine (Sigma-Aldrich, Cat #15527) buffer pH 1.5 for 5 s, followed by neutralization in Sample Diluent (Sartorius, Cat #18-1104) for 5 s; both steps were repeated 2 times; the sensors were loaded with 50 nM human DR4HsECD-FcHisCtag (SEQ ID NO: 66), or cynomolgus DR4MfECD-FcHisCtag (SEQ ID NO: 67), for 600 s; the dissociation time was 1,000 s; The window of interest for the dissociation time was set at 100 s for the cynomolgus antigen and at 1,000 s for the human antigen.

T3 sequence (chain, as listed by the source limits assumed): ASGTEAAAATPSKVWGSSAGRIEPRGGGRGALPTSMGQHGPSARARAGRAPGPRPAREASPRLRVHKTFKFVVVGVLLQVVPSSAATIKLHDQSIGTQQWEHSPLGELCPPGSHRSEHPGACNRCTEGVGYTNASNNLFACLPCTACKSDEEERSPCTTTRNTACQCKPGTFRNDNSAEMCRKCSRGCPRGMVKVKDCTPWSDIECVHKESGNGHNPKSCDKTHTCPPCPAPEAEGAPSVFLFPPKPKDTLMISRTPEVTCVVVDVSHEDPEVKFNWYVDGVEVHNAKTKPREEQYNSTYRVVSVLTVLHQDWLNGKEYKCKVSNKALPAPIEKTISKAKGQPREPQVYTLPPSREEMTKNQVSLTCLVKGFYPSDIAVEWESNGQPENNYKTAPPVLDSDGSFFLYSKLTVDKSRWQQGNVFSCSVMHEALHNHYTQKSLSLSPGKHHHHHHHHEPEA

B1: BisG1-FAPα-FERL/DR4-FERR (bispecific antibody, human IgG1, kappa, lambda)
heavy 1: EVQLLESGGGLVQPGGSPRLSCEASGFTFSSYALSWVRQAPGKGLEWVSAISGSGGGRYYADSVKGRFTISRDNSKNTLFLQMNSLRAEDTAVYYCAKEGYSSSGTYWDHWGQGTLVTVSSASTKGPSVFPLAPSSKSTSGGTAALGCLVKDYFPEPVTVSWNSGALTSGVHTFPAVLQSSGLYSLSSVVTVPSSSLGTQTYICNVNHKPSNTKVDKRVEPKSCDKTHTCPPCPAPEFERGPSVFLFPPKPKDTLMISRTPEVTCVVVDVSHEDPEVKFNWYVDGVEVHNAKTKPREEQYNSTYRVVSVLTVLHQDWLNGKEYKCKVSNKALPAPIEKTISKAKGQPREPQVYTLPPSREEMTKNQVSLTCLVKGFYPSDIAVEWESNGQPENNYKTTPPVLDSDGSFLLYSKLTVDKSRWQQGNVFSCSVMHEALHNHYTQKSLSLSPG
light 1: AIQMTQSPSSVSASVGDRVTITCRASQGVSSWLAWYQQKPGRAPKLLIYVASTLQSGVPSRFSGSGSGTDFTLTINSLQPEDFATYYCQQANSFPPTFGQGTRLEMKRTVAAPSVFIFPPSDEQLKSGTASVVCLLNNFYPREAKVQWKVDNALQSGNSQESVTEQDSKDSTYSLSSTLTLSKADYEKHKVYACEVTHQGLSSPVTKSFNRGEC
heavy 2: QVQLQESGPGLVKPSGTLSLTCAVSGGSISSYSWWSWIRQPPGKGLEWIGELYHSGSTNYNPSLKSRVTISVDKSKNQFSLKLRSVTAADTAVYYCVRGVATIDYWGQGTLVTVSSASTKGPSVFPLAPSSKSTSGGTAALGCLVKDYFPEPVTVSWNSGALTSGVHTFPAVLQSSGLYSLSSVVTVPSSSLGTQTYICNVNHKPSNTKVDKRVEPKSCDKTHTCPPCPAPEFERGPSVFLFPPKPKDTLMISRTPEVTCVVVDVSHEDPEVKFNWYVDGVEVHNAKTKPREEQYNSTYRVVSVLTVLHQDWLNGKEYKCKVSNKALPAPIEKTISKAKGQPREPQVYTLPPSREEMTKNQVSLTCLVKGFYPSDIAVEWESNGQPENNYKTTPPVLDSDGSFFLYSRLTVDKSRWQQGNVFSCSVMHEALHNHYTQKSLSLSPG
light 2: QSALTQPPSASGSPGQSVTISCTGTSSDVGGYNFVSWYQQDPGKAPKLLIYEVTKRPSGVPDRFSGSKSGNTASLTVSGLQAEDEADYYCSSYAGSNNVMFGGGTKLTVLGQPKAAPSVTLFPPSSEELQANKATLVCLISDFYPGAVTVAWKADSSPVKAGVETTTPSKQSNNKYAASSYLSLTPEQWKSHRSYSCQVTHEGSTVEKTVAPTECS
notes: Human IgG1 bispecific made by controlled Fab-arm exchange of IgG1-FAPα-FERL and IgG1-DR4-FERR; monovalent for FAPα and for DR4; also called GEN1057
- EC50 (read off the curve) [1]: ~1 µg/mL

B2: IgG1-FAPα-FERL (antibody)
heavy: EVQLLESGGGLVQPGGSPRLSCEASGFTFSSYALSWVRQAPGKGLEWVSAISGSGGGRYYADSVKGRFTISRDNSKNTLFLQMNSLRAEDTAVYYCAKEGYSSSGTYWDHWGQGTLVTVSSASTKGPSVFPLAPSSKSTSGGTAALGCLVKDYFPEPVTVSWNSGALTSGVHTFPAVLQSSGLYSLSSVVTVPSSSLGTQTYICNVNHKPSNTKVDKRVEPKSCDKTHTCPPCPAPEFERGPSVFLFPPKPKDTLMISRTPEVTCVVVDVSHEDPEVKFNWYVDGVEVHNAKTKPREEQYNSTYRVVSVLTVLHQDWLNGKEYKCKVSNKALPAPIEKTISKAKGQPREPQVYTLPPSREEMTKNQVSLTCLVKGFYPSDIAVEWESNGQPENNYKTTPPVLDSDGSFLLYSKLTVDKSRWQQGNVFSCSVMHEALHNHYTQKSLSLSPG
light: AIQMTQSPSSVSASVGDRVTITCRASQGVSSWLAWYQQKPGRAPKLLIYVASTLQSGVPSRFSGSGSGTDFTLTINSLQPEDFATYYCQQANSFPPTFGQGTRLEMKRTVAAPSVFIFPPSDEQLKSGTASVVCLLNNFYPREAKVQWKVDNALQSGNSQESVTEQDSKDSTYSLSSTLTLSKADYEKHKVYACEVTHQGLSSPVTKSFNRGEC
notes: Bivalent monoclonal IgG1 kappa
- EC50 (read off the curve) [2]: ~0.2 µg/mL

B3: BisG1-FAPα-FERL/b12-FERR (bispecific antibody, human IgG1, kappa)
heavy 1: EVQLLESGGGLVQPGGSPRLSCEASGFTFSSYALSWVRQAPGKGLEWVSAISGSGGGRYYADSVKGRFTISRDNSKNTLFLQMNSLRAEDTAVYYCAKEGYSSSGTYWDHWGQGTLVTVSSASTKGPSVFPLAPSSKSTSGGTAALGCLVKDYFPEPVTVSWNSGALTSGVHTFPAVLQSSGLYSLSSVVTVPSSSLGTQTYICNVNHKPSNTKVDKRVEPKSCDKTHTCPPCPAPEFERGPSVFLFPPKPKDTLMISRTPEVTCVVVDVSHEDPEVKFNWYVDGVEVHNAKTKPREEQYNSTYRVVSVLTVLHQDWLNGKEYKCKVSNKALPAPIEKTISKAKGQPREPQVYTLPPSREEMTKNQVSLTCLVKGFYPSDIAVEWESNGQPENNYKTTPPVLDSDGSFLLYSKLTVDKSRWQQGNVFSCSVMHEALHNHYTQKSLSLSPG
light 1: AIQMTQSPSSVSASVGDRVTITCRASQGVSSWLAWYQQKPGRAPKLLIYVASTLQSGVPSRFSGSGSGTDFTLTINSLQPEDFATYYCQQANSFPPTFGQGTRLEMKRTVAAPSVFIFPPSDEQLKSGTASVVCLLNNFYPREAKVQWKVDNALQSGNSQESVTEQDSKDSTYSLSSTLTLSKADYEKHKVYACEVTHQGLSSPVTKSFNRGEC
heavy 2: QVQLVQSGAEVKKPGASVKVSCQASGYRFSNFVIHWVRQAPGQRFEWMGWINPYNGNKEFSAKFQDRVTFTADTSANTAYMELRSLRSADTAVYYCARVGPYSWDDSPQDNYYMDVWGKGTTVIVSSASTKGPSVFPLAPSSKSTSGGTAALGCLVKDYFPEPVTVSWNSGALTSGVHTFPAVLQSSGLYSLSSVVTVPSSSLGTQTYICNVNHKPSNTKVDKRVEPKSCDKTHTCPPCPAPEFERGPSVFLFPPKPKDTLMISRTPEVTCVVVDVSHEDPEVKFNWYVDGVEVHNAKTKPREEQYNSTYRVVSVLTVLHQDWLNGKEYKCKVSNKALPAPIEKTISKAKGQPREPQVYTLPPSREEMTKNQVSLTCLVKGFYPSDIAVEWESNGQPENNYKTTPPVLDSDGSFFLYSRLTVDKSRWQQGNVFSCSVMHEALHNHYTQKSLSLSPG
light 2: EIVLTQSPGTLSLSPGERATFSCRSSHSIRSRRVAWYQHKPGQAPRLVIHGVSNRASGISDRFSGSGSGTDFTLTITRVEPEDFALYYCQVYGASSYTFGQGTKLERKRTVAAPSVFIFPPSDEQLKSGTASVVCLLNNFYPREAKVQWKVDNALQSGNSQESVTEQDSKDSTYSLSSTLTLSKADYEKHKVYACEVTHQGLSSPVTKSFNRGEC
- binding result [3]: no binding (tested: 800 nM)

Reference: patent US20250002610A1 (Genmab, published 2025)
